Results on 40 sequences are retold here after the nanobody polyreactivity screen of Harvey et al. (2022).

The series is described as follows: yeast display, Sf9 membrane polyspecificity reagent, FACS + sequencing; frameworks hold sequencing errors. In a few lines:
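Sorting gates, low and high (top ~1%), were placed on anti-HA fluorescence to track expression and on streptavidin fluorescence to track reagent binding. A clone's polyreactivity label is taken from the gate it came out of. The reagent was 10% biotinylated, detergent-solubilized Sf9 membrane, applied for 1 hour at 4 °C to galactose-induced yeast display cells.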
Regarding “QVQLVESGGGLVQAGGSLRLSCAASGRIFFRYAMGWYRQAPGKEREFVAAISCTGGSTYYADSVKGRFTISRDNAKNTVYLQMNSLKPEDTAVYYCAASVVSRPTYYAYYYWGQGTQVTVSS”, the “polyreactivity (PSR sort gate)” value is “high polyreactivity”.

Turning to “QVQLVESGGGLVQAGGSLRLSCAASGRIFFSYDMGWYTQAPGKERELVAAIDYIAGNTYYADSVKGRFTISRDNAKNTVYLQMNSLKPEDTAVYYCAADVLDWYDLLRDDYWGQGTQVTVSS”, the “polyreactivity (PSR sort gate)” value is listed as “low polyreactivity”.

As to “QVQLVESGGGLVQAGGSLRLSCAASGRIFFTNAMGWYRQAPGKERELGAAIRFSGGRTYYADSVKGRFTISGDNAKNTVYLQMNSLKPEDTAVYYCAADPPRTRYRNARFDYWGQGTQVTVSS”, the “polyreactivity (PSR sort gate)” value was “high polyreactivity”.

On to “QVQLVESGGGLVQAGGSLRLSCAASGRIFFTNAMGWYRQAPGKERELVAAIRSSGGRTYYADSVKGRFTISRDNAKNTVYLQMNSLKPEDTAVYYCNVVDGRHISHYNYWGQGTQVTVSS”, for which the “polyreactivity (PSR sort gate)” value is “high polyreactivity”.

Take “QVQLVESGGGLVQAGGSLRLSCAASGRIFFTNAMGWYRQAPGKERELVAAITSTGSRTYYADSVKGRFTISRDNAKNTVYLQMNSLKPEDTAVYYCNRVSHLDYYWGQGTQVTVSS”: the “polyreactivity (PSR sort gate)” value was “high polyreactivity”.

Take “QVQLVESGGGLVQAGGSLRLSCAASGRIFFTNAMGWYRQAPGKETELVASIDDTGSTNYADSVKGRFTISRDNAKNTVYLQMNSLKPEDTAVYYCNGVYYSYRYGHDYWGQGTQVTVSS”: the “polyreactivity (PSR sort gate)” value is “low polyreactivity”.

For the sequence “QVQLVESGGGLVQAGGSLRLSCAASGRIFFTNDMGWYRQAPGKERELVATITGNGASTFYADSVKGRFTISRDNAKNTVYLQMNSLKPEDSAVYYCNADRSSYPRYDYWGQGTLVTVSS”, the “polyreactivity (PSR sort gate)” value is listed as “low polyreactivity”.

“QVQLVESGGGLVQAGGSLRLSCAASGRIFFTYVMGWYRQAPGKEREFVAAITFSDGTTYYADSVKGRFTISRDNAKNTVYLQMNSLKPEDTAVYYCNTDSFYGFVYPWTISSEVDYWGQGTQVTVSS”: the “polyreactivity (PSR sort gate)” value is “low polyreactivity”.

In the case of “QVQLVESGGGLVQAGGSLRLSCAASGRIFFVNAMGWYRQAPGKERELVAAISRGGSTNYADSVKGRFTISRDNAKNTVYLQMNSLKPEDTAVFYCNADGSSYWYPVPLDGGDYWGQGTQVTVSS”, the “polyreactivity (PSR sort gate)” value is given as “low polyreactivity”.

In the case of “QVQLVESGGGLVQAGGSLRLSCAASGRIFFYNDMGWYRQAPGKERELVASISSGTSTYYADSVKGRFTISRDNAKNTVYLQMNSLKPEDTAVYYCATGRPWHYSSATYDYWGQGTQVSVSS”, the “polyreactivity (PSR sort gate)” value is on record as “low polyreactivity”.

Regarding “QVQLVESGGGLVQAGGSLRLSCAASGRIFGANAMGWYRQAPGKERELVATITYGGTSTYYADSVKGRFTISRDNGKNTVYLQMNSLKPEDTAVSYCAADGYSVFAAILGEYFDSDYWGQGTQVTVSS”, the “polyreactivity (PSR sort gate)” value is “low polyreactivity”.

Regarding “QVQLVESGGGLVQAGGSLRLSCAASGRIFGANAMGWYRQAPGKERELVAVITGGGGTYYADSVKGRFTISRDNAKNTVYLQMNRLKPEETAVYYCDWPRYYYTYPSHPMDYWGQGTQVTVSS”, the “polyreactivity (PSR sort gate)” value is reported as “low polyreactivity”.

Turning to “QVQLVESGGGLVQAGGSLRLSCAASGRIFGANARGWYRQAPGKERELVATITYGGTSTYYADSVKGRFTISRDNAKNTVYLQMNSLKPEDTAVYYCAADGYSVFAAILGEYFDYDYWGQGTQVTVSS”, the “polyreactivity (PSR sort gate)” value was “low polyreactivity”.

Take “QVQLVESGGGLVQAGGSLRLSCAASGRIFGAYAMGSYRQAPGKERELVAAIDIRGGKTYYADSVKGRFTISRDYSKNSVYLQMNSMKPEDTAVYYCAADTWYDAYNYWGQGTQVTVSS”: the “polyreactivity (PSR sort gate)” value is reported as “low polyreactivity”.

Consider “QVQLVESGGGLVQAGGSLRLSCAASGRIFGAYAMGWYRQAPGKERELVAAITSGGSTYADSVKGRFTISRDNAKNTVYLQMNSLKPEDTAVYYCAADLITRSDSWWTGWIWEYDYWGQGTQVTVSS”, for which the “polyreactivity (PSR sort gate)” value is “low polyreactivity”.

“QVQLVESGGGLVQAGGSLRLSCAASGRIFGAYAMGWYRQAPGKERELVADIRSTGSTNYADSVKGRFTISRDNAKNTVYLQMNSLKPEDTAVYYCAARWRSRRFGSGFEYWGQGTQVTVSS”: the “polyreactivity (PSR sort gate)” value was “high polyreactivity”.

In the case of “QVQLVESGGGLVQAGGSLRLSCAASGRIFGCYSMGWYRPAPGKEREEVAAITWSGTSTYYADSVKGRFTISRENAKNTVYLQMNSLQPEDTAVYYCAADSLSGSAPTYYSTLEYWGQGTQVTVSS”, the “polyreactivity (PSR sort gate)” value is “low polyreactivity”.

Take “QVQLVESGGGLVQAGGSLRLSCAASGRIFGDNAMGWYRQAPGKEREFVATINGSGGSTYYADSVKGRFTISRDNAKNTVYLQMNSLKPEDTAVYYCFVQQNYGYDYWGQGTQVTVSS”: the “polyreactivity (PSR sort gate)” value is “low polyreactivity”.

For the sequence “QVQLVESGGGLVQAGGSLRLSCAASGRIFGDNTMGWYRQAPGKERELVAAISFTGGSTYYADSVKGRFSISRDNAKNTVYLQMNSLKPEDTAVYYCNADWVSTWGYDYWGQGTQVTVSS”, the “polyreactivity (PSR sort gate)” value is recorded as “low polyreactivity”.

With “QVQLVESGGGLVQAGGSLRLSCAASGRIFGDYAMGWYRQAPGKERELVAAISYSGGSTYYADSVKGRFTISRDNAKNTVYLQMNSLKPEDTAVYYCNKRWYTYGRYGVQGYDYWGQGTQVTVSS”, the “polyreactivity (PSR sort gate)” value was “high polyreactivity”.

Regarding “QVQLVESGGGLVQAGGSLRLSCAASGRIFGEYAMGWYRQAPGKERELVAAITSSTGSTYYADSVKGRFTISRDNAKNTVYLQMNSLKPEDTAVYYCAAADLKYASYWYDYWGQGTQVTVSS”, the “polyreactivity (PSR sort gate)” value is reported as “low polyreactivity”.

Regarding “QVQLVESGGGLVQAGGSLRLSCAASGRIFGFYAMGLYRQAPGKERELVARITLSGGRTYYADSVKGRFTISRDNAKNTVYLQMNSLKPEDTAVYYCAADSIGRLWGYGYWGQGTQVTVSS”, the “polyreactivity (PSR sort gate)” value was “high polyreactivity”.

For the sequence “QVQLVESGGGLVQAGGSLRLSCAASGRIFGFYAMGWYRQAPGKEREFVAAITWSGTNTYYADSVKGRFTISRDNAKNTVYLQMNSLKPEDTAVYYCNARQYYKYGYWGQGTQVTVSS”, the “polyreactivity (PSR sort gate)” value is recorded as “high polyreactivity”.

Consider “QVQLVESGGGLVQAGGSLRLSCAASGRIFGFYAMGWYRQAPGKERELVADINWSATSTYYADSVKGRFTISRDNAKNTVYLQMNSLKPEDTAVYYCAADVSYRYYWGQVTQVTVSS”, for which the “polyreactivity (PSR sort gate)” value was “low polyreactivity”.

For “QVQLVESGGGLVQAGGSLRLSCAASGRIFGFYAMGWYRQAPGKERELVADITSGGSTNYADSVKGRFTISRDNAKNTVYLQMNSLKPEDTAVYYCNALSYVWYRYPGNWDEDDYWGQGTQVTVSS”, the “polyreactivity (PSR sort gate)” value is given as “low polyreactivity”.

Turning to “QVQLVESGGGLVQAGGSLRLSCAASGRIFGFYAMGWYRQAPGKERELVARITSGGRTTYADSVKGRFTISRDNAKNTVYLQMNSLKPEDTAVYYCAADARYHGFPKVYYYRGGYDYWGQGTQVTVSS”, the “polyreactivity (PSR sort gate)” value is listed as “high polyreactivity”.

In the case of “QVQLVESGGGLVQAGGSLRLSCAASGRIFGGNAMGWYRQAPGKERELVAAISKRGGSTYYADSVKWRFTISRDNAKNTVYLQMNILKPEDTAVYYCAATAYADQGLDYGYWGQGTQVTVSS”, the “polyreactivity (PSR sort gate)” value was “high polyreactivity”.

For the sequence “QVQLVESGGGLVQAGGSLRLSCAASGRIFGGNAMGWYRQAPGKERELVAAITSGGTTNYADSVKGRFTISRDNAKNTVYLQMNSLKPEDTAVYYCAADFKPLYYDEYDYWGQGTQVTVSS”, the “polyreactivity (PSR sort gate)” value is recorded as “low polyreactivity”.

With “QVQLVESGGGLVQAGGSLRLSCAASGRIFGGNAMGWYRQAPGKERELVAAITTRGGSTYADSVKGRFTISRDKAKNTVYLQMNSLKPEDTAVYYCAVERSYHGGPRYLVRTYGYWGQGTQVTVSS”, the “polyreactivity (PSR sort gate)” value was “low polyreactivity”.

As to “QVQLVESGGGLVQAGGSLRLSCAASGRIFGGNTMGWYRQAPGKEREFVAAITQSGTRTYYADSVKGRFTISRDNAKNTVYLQMNSLKPEDTAVYYCAATWRQHPGSMGYWGQGTQVTVSS”, the “polyreactivity (PSR sort gate)” value was “high polyreactivity”.

Regarding “QVQLVESGGGLVQAGGSLRLSCAASGRIFGGYAMGWYRPAPGKERELVAAISSRGGSTYYADSVKGRFTISRDNAKNTVYLQMNSLKPEDTAVYYCAADGRVKGWGQGTQVTVSS”, the “polyreactivity (PSR sort gate)” value is “high polyreactivity”.

On to “QVQLVESGGGLVQAGGSLRLSCAASGRIFGGYAMGWYRQAPGKERELVAAISSGGNTKYADSVKGRFTISRDNAKNTVYLQMNSLKPEDTAVYYCAAKFAQPYYRYDYWGQGTQVTVSS”, for which the “polyreactivity (PSR sort gate)” value is “high polyreactivity”.

On to “QVQLVESGGGLVQAGGSLRLSCAASGRIFGGYAMGWYRQAPGKERELVASITARGTSTYYADTVKGRFTISRDNAKNTVYLQMNRLKPEDTAVYYCNALYRIYRNQWFISNYGYYYWGQGTQVTVSS”, for which the “polyreactivity (PSR sort gate)” value is listed as “low polyreactivity”.

For the sequence “QVQLVESGGGLVQAGGSLRLSCAASGRIFGGYAMGWYRQAPGKERELVAVINGGTSTKYADSVKGRFTISRDNAKNTVYLQMNSLKPEDNAVYYCAKTRHDSLQNRNRYDYWGQGTQVTVSS”, the “polyreactivity (PSR sort gate)” value is listed as “low polyreactivity”.

For “QVQLVESGGGLVQAGGSLRLSCAASGRIFGGYAMGWYRQAPGKERELVAVITDGGSTNYADSVKGRFTISRDNAKNTVYLQMNSLKPEDTAVYYCAADSYGDEPPYDYWGQGTQVTVSS”, the “polyreactivity (PSR sort gate)” value is reported as “low polyreactivity”.

Turning to “QVQLVESGGGLVQAGGSLRLSCAASGRIFGGYTMGWYRQAPGKERELVAAITSGGSTNYADSVKGRFTISRDNAKNTVYLQMNSLKPEDTAVYYCAATYDGTYDYWGQGTQVTVSS”, the “polyreactivity (PSR sort gate)” value is “high polyreactivity”.

Consider “QVQLVESGGGLVQAGGSLRLSCAASGRIFGINVMGWYRPAPGKERELVARITGRGGRTYYADSVKGRFTMSRDNAKNTVYLQMNSLKPEDTAVYYCAADARYEAYDYWGQGTQVTVSS”, for which the “polyreactivity (PSR sort gate)” value was “high polyreactivity”.

“QVQLVESGGGLVQAGGSLRLSCAASGRIFGIYAMGWYRQAPGKERELVAAISKSGARTYYADSVKGRFTISRDNAKNTVFLQMNSLKPEDTAVYYCNAYRRKYYFTYGSWGQGTQVTVSS”: the “polyreactivity (PSR sort gate)” value is “high polyreactivity”.

In the case of “QVQLVESGGGLVQAGGSLRLSCAASGRIFGIYAMGWYRQAPGKERELVARITGGGSTNYADSVKGRFTISRDNAKNTVYLQMNSLKPEDTAVYYCAATVRRIVGNITRYDYWGQGTQVTVSS”, the “polyreactivity (PSR sort gate)” value was “low polyreactivity”.

“QVQLVESGGGLVQAGGSLRLSCAASGRIFGKYAMGWYRQAPGKERELVAAIRITGGSTYYADSVKGRFTISRDNAKNTVYLQMNSLKPEDTAVYYCAAVYKYADVIYDYWGQGTQVTVSS”: the “polyreactivity (PSR sort gate)” value is “high polyreactivity”.
